For this assay, the target named is human serum albumin (Albuminar, Aventis) (human), P02768. The assay can be described thus: SPR (BIACORE 3000), serum albumin immobilised on CM5 chip, analyte injected; Req divided by molecular weight; reference GnRH-Fc.

QHWSYGLRPG (peptide, UniProt P01148 24-33, looked up, modifications not checked) [GnRH peptide (gonadotropin releasing hormone), P01148 24-33] registered a fold more bound (Req/MW) than GnRH-Fc above 5 times.

The values are drawn from patent publication US20050037947A1, “INHIBITION OF DRUG BINDING TO SERUM ALBUMIN” (priority 2003, published 2005).
